According to the supplement of paper PMC12667976:

B1: library; numbered along this chain (parent)
chain: MATDAALRRLLRLHRTEIAVAVDSAFPLLHALADHDVVPEDKFQETLHLKEKEGCPQAFHALLSWLLTQDSTAILDFWRVLFKDYNLERYGRLQPILDSFPKDVDLSQPRKGRKPPAVPKALVPPPRLPTKRKASEEARAAAPAALTPRGTASPGSQLKAKPPKKPESSAEQQRLPLGNGIQTMSASVQRAVAMSSGDVPGARGAVEGILIQQVFESGGSKKCIQVGGEFYTPSKFEDSGSGKNKARSSSGPKPLVRAKGAQGAAPGGGEARLGQQGSVPAPLALPSDPQLHQKNEDECAVCRDGGELICCDGCPRAFHLACLSPPLREIPSGTWRCSSCLQATVQEVQPRAEEPRPQEPPVETPLPPGLRSAGEEVRGPPGEPLAGMDTTLVYKHLPAPPSAAPLPGLDSSALHPLLCVGPEGQQNLAPGARCGVCGDGTDVLRCTHCAAAFHWRCHFPAGTSRPGTGLRCRSCSGDVTPAPVEGVLAPSPARLAPGPAKDDTASHEPALHRDDLESLLSEHTFDGILQWAIQSMARPAAPFPS

Variants of: B1
Test: AIRE transcriptional activation functional score (insulin promoter-GFP; nonsense median 0, synonymous median 1) (normalised score); higher = higher AIRE activity (more reporter activation)
Details: with insulin promoter-GFP reporter in HEK293
Procedure: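 Deep mutational scan of full-length human AIRE (codon-optimized cDNA, DT-POPCode NNN libraries over three regions) integrated at a Bxb1 landing pad in HEK293 cells carrying an insulin core promoter-GFP reporter at a Flp-In site. Cells were sorted for the top 10% GFP about 14 days after transfection. Variant frequency log-ratios (select vs non-select, TileSeq) were rescaled so that the nonsense median is 0 and the synonymous median is 1, then averaged over biological replicates.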

AIRE transcriptional activation functional score: each site, then its substitutions
V188: W 0.518, S 0.447, A 0.635, H 0.687, I 1.01, G 0.504, Q 0.798, C 0.891, D 0.779, P 0.629, E 0.556, L 1.24, N 0.669, R 0.52, K 0.779, M 1.32, T 0.434, F 0.939, Y 1.56
G180: A 1.21, I 0.248, V 0.54, Y 0.548, K 1.02, H 1.31, M 0.445, W -0.0444, S 0.929, E 0.208, L 0.0432, P -1.38, F -0.106, N 1.23, R 1.63, C 1.24, T 0.839, D 0.474
A193: Y 1.05, P 0.42, T 1.15, E 0.394, G 0.791, S 0.899, I 0.281, C 1.39, H 1.81, V 0.147, M 0.563, K 0.858, N 1.14, L 0.279, R 0.93, D 1.03, F 0.268, Q 1.88, W -1.35
L177: Q 0.719, Y 1.89, V 0.75, F 1.5, I 0.748, K 1.09, T 0.252, W 2.38, S 0.553, H 1.01, P 0.397, R 0.707, N 0.575, M 1.57, E -0.132, G -0.4
T183: S 0.952, C 1.48, M 0.663, F 0.248, P 0.392, E 0.451, H 0.652, I 0.211, G 0.735, Q 0.469, D 0.425, V 0.738, N 1.18, Y -0.205, A 0.69, K 0.924, L 0.699, W 0.659, R 0.948
N179: T 1.79, S 0.818, G 0.991, K 1.14, I 1.15, C 1.26, L 0.991, W -2.31, R 1.52, F 0.503, E 1.14, A 1.53, Q -0.585, H 1.97, P 1.71, D 0.42, V 1.49, M 1.62, Y 1.15
V192: K 1.14, H 0.776, F 0.922, C 0.889, I 1.13, P 0.706, S 0.697, W 0.522, T 0.917, G 0.777, Y 1.19, Q 0.811, N 0.244, D 0.613, E 0.516, R 0.721, M 1.08, L 1.02, A 0.598
M184: G 1.01, A 0.129, N 0.0346, W 0.275, Y 0.481, T 0.688, P 0.519, Q 0.653, V 0.51, S 0.488, E -0.977, I 0.983, L 0.411, D -0.962, F 0.676, R 0.932
I181: S 0.834, G 0.602, Y 1.13, E 0.0205, N 1.53, L 0.717, A 0.485, D 0.3, W 1.14, H -0.417, M 0.958, Q -0.331, C 0.211, F 1.59, T 0.242, R 0.684, P -1.22, V 0.788, K 0.076
S187: V 0.398, F -0.0306, K 0.853, R 1.18, N 0.716, T 1.17, I 0.599, Y 0.152, L 0.063, A 0.982, E 0.48, C 0.918, H 1.28, M 0.503, P 0.621, W 0.0947, G 0.706, Q 0.823, D 0.711
S185: L -0.0826, H -0.313, C 0.855, I 0.353, F 0.468, N 0.832, R 0.854, A 0.878, T 1.56, Q 0.746, D 0.436, P 0.302, Y 0.264, K 1, W 0.557, E 0.209, G 0.881, M -0.432, V 0.26
R190: E 0.705, F -0.277, Q 1.24, I 0.118, S 0.821, P 0.955, G 0.592, D 0.292, K 0.53, L 0.356, W 0.069, Y 0.797, T 0.755, M 0.19, H 0.858, V 0.094, N 1.15, C 0.414, A 0.878
A186: D 1.11, N 0.421, G 0.548, H 0.849, K 0.646, C 1.29, P 0.846, V -0.207, F -0.0353, T 0.873, S 0.95, R 0.648, W 0.156, E 0.734, Y -0.165, M 0.198, L 0.0294, I -0.146, Q 0.6
Q182: S 1.05, A 1.52, R 1.3, Y 0.181, F -0.279, T 1.69, L 0.0585, P 0.264, K 1.73, W 0.0615, E 1.46, D 0.345, N 1.54, C 1.4, V -0.0151, I -0.398, M 0.383, H 1.91, G 0.423
G178: I 1.74, R 1.49, S 1.26, A 0.405, P 0.532, C 1.22, F 1.08, D 0.549, V 1.28, L 1.58, N 0.294, M 1.65, Y 1.89, E 0.493, Q 0.33, W 0.64, K 0.788, T 1.11
Q189: H 0.892, N 0.838, W -1.03, G 0.415, R 0.813, D 0.724, L 0.207, C 0.0413, A 1.25, E 1.01, I 0.169, F -0.181, K 0.969, S 1.21, P 0.54, Y 0.0452, T 0.669, V -0.071, M -0.352
M194: P 0.602, Q 0.907, F 0.394, R 0.732, S 0.554, L 0.99, V 1.31, Y 0.702, C 0.639, W 0.214, H 0.96, G 0.75, N 0.73, D -0.299, A 0.708, E 0.601, K 0.544, I 1.08, T 0.367
A191: H 1.25, W 0.116, Q 0.489, D 0.948, F -0.339, V 0.157, G 0.958, T 1.27, C 1.08, S 1.03, Y -0.337, I -0.149, P 0.647, L 0.166, K 0.485, N 0.144, M 0.662, E 0.164, R 1.2
